Test results: patent publication US20250242041A1 (Seagen, published 2025)
Blank lines part the entries; values can stand above or below the binder they belong to.

How the values were obtained:
[1] = molecular target: T1, human αvβ6 on 293F:huβ6 cells (human, UniProt P06756 31-1048; P18564 22-788); experiment: competition binding by flow cytometry on 293F:huβ6 cells
T1 construct: whole, on cells; also called HEK293F:huβ6
Experimental: 0.1×10⁶ antigen expressing cells were aliquoted in each well of a 96-well v-bottom plate on ice. The cells were incubated for 1 hour with 2 nM AlexaFluor-647 labeled humanized 2A2 HCLG and increasing concentrations (from 4 pM-1 uM) of unlabeled humanized 2A2 HCLG antibody and h2A2-Mdpr-PEG(12)-gluc-MMAE(8) in buffer (Tris-buffered saline, 2% fetal bovine serum, 0.5 mM MnCl₂, 0.02% NaN₃). Cells were pelleted and washed 3 times with TBS/FBS. The cells were pelleted and resuspended in 125 uL of TBS/FBS. Fluorescent signal of binding was detected using a Becton Dickinson Biosciences LSR II (San Jose, CA). Percent of saturated fluorescent signal was used to determine percent labeled humanized 2A2 antibody bound to cells and to subsequently extrapolate the EC50 by fitting the data to a sigmoidal dose-response curve with variable slope using GraphPad Software (LaJolla, CA).

[2] = molecular target: T2, cyno αvβ6 on 293F:cynoβ6 cells (human;Macaca fascicularis, UniProt P06756 31-1048; A0A2K5TZ36 22-787); experiment: competition binding on 293F cells
T2 chain 1: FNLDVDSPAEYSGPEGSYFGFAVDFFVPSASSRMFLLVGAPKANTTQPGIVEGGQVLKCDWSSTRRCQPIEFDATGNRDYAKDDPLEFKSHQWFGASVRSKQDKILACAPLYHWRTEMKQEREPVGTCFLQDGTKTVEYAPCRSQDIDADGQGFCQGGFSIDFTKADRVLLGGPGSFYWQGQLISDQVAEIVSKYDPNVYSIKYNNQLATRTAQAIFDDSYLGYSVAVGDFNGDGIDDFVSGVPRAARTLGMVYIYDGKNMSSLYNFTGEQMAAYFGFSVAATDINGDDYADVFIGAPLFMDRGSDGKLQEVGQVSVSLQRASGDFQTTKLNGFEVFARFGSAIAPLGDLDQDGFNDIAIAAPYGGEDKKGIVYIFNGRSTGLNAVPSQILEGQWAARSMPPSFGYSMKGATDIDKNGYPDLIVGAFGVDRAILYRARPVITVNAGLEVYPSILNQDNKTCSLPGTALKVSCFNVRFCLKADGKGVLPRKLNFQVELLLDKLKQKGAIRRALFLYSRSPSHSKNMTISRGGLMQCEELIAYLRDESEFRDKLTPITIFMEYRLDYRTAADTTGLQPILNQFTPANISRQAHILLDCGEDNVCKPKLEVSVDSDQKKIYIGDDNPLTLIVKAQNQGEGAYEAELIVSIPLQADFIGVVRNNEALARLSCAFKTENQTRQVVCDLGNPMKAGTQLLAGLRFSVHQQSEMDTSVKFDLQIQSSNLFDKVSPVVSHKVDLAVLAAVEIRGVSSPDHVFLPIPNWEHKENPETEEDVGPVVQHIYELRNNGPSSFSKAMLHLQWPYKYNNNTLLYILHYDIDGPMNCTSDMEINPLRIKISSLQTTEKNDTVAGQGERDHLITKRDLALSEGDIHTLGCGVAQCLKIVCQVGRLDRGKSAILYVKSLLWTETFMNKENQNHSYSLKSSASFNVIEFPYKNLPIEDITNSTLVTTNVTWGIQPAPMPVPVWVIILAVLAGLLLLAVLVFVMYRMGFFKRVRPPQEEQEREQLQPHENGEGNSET
T2 chain 2: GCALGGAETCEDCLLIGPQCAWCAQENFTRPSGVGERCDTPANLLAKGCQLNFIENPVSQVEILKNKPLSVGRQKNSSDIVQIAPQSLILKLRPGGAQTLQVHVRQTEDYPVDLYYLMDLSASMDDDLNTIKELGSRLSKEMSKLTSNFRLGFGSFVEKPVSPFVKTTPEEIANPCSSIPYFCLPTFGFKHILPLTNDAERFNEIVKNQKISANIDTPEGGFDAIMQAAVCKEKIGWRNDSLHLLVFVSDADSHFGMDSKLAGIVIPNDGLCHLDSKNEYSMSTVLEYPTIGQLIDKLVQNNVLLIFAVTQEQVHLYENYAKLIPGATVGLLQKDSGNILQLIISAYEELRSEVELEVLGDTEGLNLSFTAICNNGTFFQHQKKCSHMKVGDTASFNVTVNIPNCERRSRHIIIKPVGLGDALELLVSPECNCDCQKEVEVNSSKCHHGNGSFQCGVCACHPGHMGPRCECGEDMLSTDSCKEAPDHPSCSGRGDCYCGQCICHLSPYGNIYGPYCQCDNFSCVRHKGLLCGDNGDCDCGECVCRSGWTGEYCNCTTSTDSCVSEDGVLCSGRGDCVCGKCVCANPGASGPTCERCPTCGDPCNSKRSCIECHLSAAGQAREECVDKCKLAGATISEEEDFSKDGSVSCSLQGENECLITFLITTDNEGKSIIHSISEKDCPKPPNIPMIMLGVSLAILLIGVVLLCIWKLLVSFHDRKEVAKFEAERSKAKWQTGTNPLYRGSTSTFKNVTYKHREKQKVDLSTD

[3] = molecular target: T3, human αvβ6 on 293F:huβ6 cells (human, UniProt P06756 31-1048; P18564 22-788); experiment: competition binding on 293F cells
T3 chain 1: T2 chain 1
T3 chain 2: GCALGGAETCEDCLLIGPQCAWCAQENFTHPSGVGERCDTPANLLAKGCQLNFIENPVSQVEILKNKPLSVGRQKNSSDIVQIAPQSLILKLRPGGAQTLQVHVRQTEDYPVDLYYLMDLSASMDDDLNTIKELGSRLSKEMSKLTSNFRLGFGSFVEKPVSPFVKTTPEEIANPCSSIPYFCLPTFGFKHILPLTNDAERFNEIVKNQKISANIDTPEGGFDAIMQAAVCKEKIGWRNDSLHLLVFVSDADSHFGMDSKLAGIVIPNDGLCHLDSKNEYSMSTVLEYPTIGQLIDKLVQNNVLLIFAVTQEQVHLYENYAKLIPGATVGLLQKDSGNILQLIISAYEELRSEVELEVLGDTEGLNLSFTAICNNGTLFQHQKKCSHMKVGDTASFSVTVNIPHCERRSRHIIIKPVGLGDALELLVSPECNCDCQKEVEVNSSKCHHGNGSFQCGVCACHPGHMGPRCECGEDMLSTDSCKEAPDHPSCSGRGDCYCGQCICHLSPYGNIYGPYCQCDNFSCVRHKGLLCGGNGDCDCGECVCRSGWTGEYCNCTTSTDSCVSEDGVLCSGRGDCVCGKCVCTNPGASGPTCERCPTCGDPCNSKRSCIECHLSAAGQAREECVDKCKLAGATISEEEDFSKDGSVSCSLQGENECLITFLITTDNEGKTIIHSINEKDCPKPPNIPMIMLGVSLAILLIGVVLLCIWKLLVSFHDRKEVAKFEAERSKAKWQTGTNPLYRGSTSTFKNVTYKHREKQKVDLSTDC

[4] = molecular target: T2, cyno αvβ6 on 293F:cynoβ6 cells; experiment: saturation binding on 293F cells; AF647-labeled
[5] = molecular target: T3, human αvβ6 on 293F:huβ6 cells; experiment: saturation binding on 293F cells; AF647-labeled
[6] = molecular target: T3, human αvβ6 on 293F:huβ6 cells; experiment: competition binding on 293F cells; 2nM m2A2-AF647 competitor
[7] = molecular target: T2, cyno αvβ6 on 293F:cynoβ6 cells; experiment: saturation binding on 293F cells; AF647-labeled
[8] = molecular target: T3, human αvβ6 on 293F:huβ6 cells; experiment: saturation binding on 293F cells; AF647-labeled
[9] = molecular target: T3, human αvβ6 on 293F:huβ6 cells; experiment: competition binding on 293F cells; 2nM m2A2-AF647 competitor
[10] = molecular target: T1, human αvβ6 on 293F:huβ6 cells; experiment: FMAT and flow cytometry binding studies on cells
[11] = molecular target: T4, αvβ5 on the αvβ5-positive parental line (293F:vector) (human, UniProt P06756 31-1048; P18084 24-799); experiment: FMAT and flow cytometry binding studies on cells
T4 construct: whole, on cells; HEK293F cells transfected with the empty vector, used as negative control; also called HEK293F:vector
T4 sequence (P18084 24-799, one chain of several): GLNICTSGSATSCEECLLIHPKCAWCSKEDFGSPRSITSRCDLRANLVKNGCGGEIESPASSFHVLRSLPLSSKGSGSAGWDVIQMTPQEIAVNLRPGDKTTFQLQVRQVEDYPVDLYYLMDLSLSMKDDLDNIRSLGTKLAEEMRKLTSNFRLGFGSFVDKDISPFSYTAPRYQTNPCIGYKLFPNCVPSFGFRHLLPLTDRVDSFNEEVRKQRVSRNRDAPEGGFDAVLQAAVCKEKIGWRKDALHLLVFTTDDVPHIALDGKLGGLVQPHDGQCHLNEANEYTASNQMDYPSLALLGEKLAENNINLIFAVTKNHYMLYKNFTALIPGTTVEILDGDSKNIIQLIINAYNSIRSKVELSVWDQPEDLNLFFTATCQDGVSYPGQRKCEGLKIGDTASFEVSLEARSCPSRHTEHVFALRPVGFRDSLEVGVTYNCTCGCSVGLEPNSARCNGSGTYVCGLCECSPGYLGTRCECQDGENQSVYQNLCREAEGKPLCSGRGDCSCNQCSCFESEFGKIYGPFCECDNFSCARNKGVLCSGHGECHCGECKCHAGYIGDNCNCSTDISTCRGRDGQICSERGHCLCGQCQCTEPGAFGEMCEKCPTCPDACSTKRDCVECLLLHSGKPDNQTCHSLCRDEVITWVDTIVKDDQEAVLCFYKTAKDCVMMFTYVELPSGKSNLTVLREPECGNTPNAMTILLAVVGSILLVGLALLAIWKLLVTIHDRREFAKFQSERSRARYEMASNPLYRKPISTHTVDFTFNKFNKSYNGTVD

[12] = molecular target: T3, human αvβ6 on 293F:huβ6 cells; experiment: competition binding on 293F cells; 2nM m2A2-AF647 competitor

binding result [1]: binds
EC50 [2]: 4 nM
EC50 [3]: 4 nM
B1: h2A2-Mdpr-PEG(12)-gluc-MMAE(8) (antibody, human IgG1, kappa, V domains shown)
VH: QFQLVQSGAEVKKPGASVKVSCKASGYSFTDYNVNWVRQAPGQGLEWIGVINPKYGTTRYNQKFKGRATLTVDKSTSTAYMELSSLRSEDTAVYYCTRGLNAWDYWGQGTLVTVSS
VL: DIQMTQSPSSLSASVGDRVTITCGASENIYGALNWYQQKPGKAPKLLIYGATNLEDGVPSRFSGSGSGRDYTFTISSLQPEDIATYYCQNVLTTPYTFGQGTKLEIKR
modifications: SGD-5088 drug-linker (Mdpr-PEG(12)-gluc-MMAE) on cysteines of the reduced interchain disulfides, eight copies of drug-linker per antibody
notes: also called ADC prepared with h2A2 HCLG and the SGD-5088 drug-linker; HCLG ADC

EC50 [4]: 0.4 nM
EC50 [5]: 0.5 nM
EC50 [6]: 3 nM
EC50 [7]: 0.4 nM
EC50 [8]: 0.5 nM
EC50 [9]: 3 nM
binding result [10]: binds
binding result [11]: no binding
EC50 [12]: 2 nM
B2: murine monoclonal antibody 2A2 (antibody, V domains shown)
VH: EFQLQQSGPELVKPGASVKISCKASGYSFTDYNVNWVKQSNGKSLEWIGVINPKYGTTRYNQKFKGKATLTVDKPSSTAYMQLNSLTSEDSAVYYCTRGLNAWDYWGQGASVTVSS
VL: DIQMTQSPASLSASVGETVTITCGASENIYGALNWYQRKQGKSPQLLIYGATNLADGMSSRFSGSGSGRQYSFKISSLHPDDVATYYCQNVLTTPYTFGGGTKLEIK
notes: Mouse hybridoma IgG; also called m2A2; mouse 2A2
